Laboratory results: PMC12724136, “Design of antibody structure-guided epitope vaccines in silico to induce potent immune responses against emerging viruses” (Journal of Virology, 2025)

B1: scFv1: tilapia-derived single-chain antibody fragment with high affinity for TiLV, from phage library (protein)
scFv: MSHRLTCAYSGFSSDIHAVWVRQAAGKGLEWIAYISDSSAYIYYSQSVRGRFTISRDNSRKQVYLQMNSLTTEDSAVYYCTREGSGFAFDYWGKGTGGGGSGGGGSGGGGSVTISATGSSNIGADLSWYLQKTGETPKLLIYKASTRSSGTPPRFSGSTSGSQYTLTISGVQAEDAGDYYCLGDHGGGALTFGGGTK
modifications: left off: 6×His, end not stated, kept | thioredoxin (from the vector pET32a), end not stated, state not stated

Key:
[1] = test system: TiLV-positive antibody; experiment: Depletion of TiLV-positive antibodies by epitope peptides (ELISA); type: binding, tilapia; settings: TiLV-positive antibody diluted 800-fold, 10 depletion cycles
Experimental: The epitope peptide to be detected was coated on the ELISA plate at 37°C for 2 h. After washing with PBST, it was blocked with 2% skim milk powder for 2 h to reduce non-specific binding. The TiLV-positive antibody was diluted 800-fold and added to the wells at 100 µL per well. After incubation at room temperature for 20 min, the liquid was aspirated. The ELISA plate was briefly washed, and then, the serum was added again. This process was repeated 10 times, and then, the serum was collected. An ELISA was performed on the collected serum to detect the level of tilapia IgM. Blank and non-depleted negative controls were set up in the experiment. The depletion rate was calculated as follows: Depletion rate = (OD450 of non-depleted sample − OD450 of detected sample) / OD450 of non-depleted sample × 100%.

[2] = test system: scFv1; experiment: Western blot, binding of S3 epitope peptide and mutants to GST-scFv1; design: species or system Nile tilapia (Oreochromis niloticus); settings: PVDF membrane with GST-scFv1 incubated with S3 proteins 37°C 2 h; 6×His tag antibody
Experimental: The PET-N-GST-scFv1 plasmid was constructed using seamless cloning technology (Vazyme), and the protein was obtained through a prokaryotic expression system. The scFv1 protein was purified using GST resin (Beyotime) and stored after lyophilization. Similarly, S3-WT, S3-MuT-^Y386^A, S3-MuT-^R393^A, S3-MuT-^L398^A, and S3-MuT were expressed in prokaryotes using the pET32a plasmid. In the Western blot experiment, after blocking, the PVDF membrane containing GST-scFv1 blots was incubated with each of the five S3 proteins at 37°C for 2 h. Subsequently, the anti-6×His tag mouse mAb was used as the primary antibody, and HRP-conjugated goat anti-mouse IgG was used as the secondary antibody. The ECL color development steps were performed as described above.

[3] = test system: tilapia IgM; experiment: Serum antibody levels of tilapia after immunization with epitope peptides (ELISA); type: in vivo, Nile tilapia (Oreochromis niloticus); settings: 20 µg peptide i.m. with Freund's adjuvant, 7-28 days
Description: Epitope vaccines usually need to be modified with Freund’s adjuvant (Beyotime) before immunization. Briefly, for a single immunization, the epitope peptide is mixed with an equal dose of complete Freund’s adjuvant and then administered to tilapia. For booster immunization, an equal dose of incomplete Freund’s adjuvant is fused with the epitope peptide before vaccination. For the S1, S3, and S10 epitope vaccine immunization programs, healthy Oreochromis niloticus were divided into six groups (70 fish per group) and vaccinated with 20 µg of peptide vaccine by intramuscular injection. During the 1–4 week immunization period, we collected four fish serum samples weekly for immunological analysis.
In the immunization experiments based on the P30-designed vaccine, healthy Nile tilapia were divided into four groups (70 fish per group) and injected intramuscularly with 20 µg of peptide vaccine to complete the primary immunization. After 14 days, the same dose of vaccine was administered again to complete the booster immunization. Serum and tissue samples were collected from 4 fishes in each group weekly after the primary immunization, for a total of 6 weeks. Furthermore, a PBS control was incorporated into both immunization experiments, and the immunization process was conducted in accordance with the aforementioned methodology.
Serum antibody levels after immunization were determined by indirect ELISA. Specifically, serum samples were diluted appropriately, coated to enzyme-labeled plates, and incubated overnight at 4°C. After being washed three times with PBST buffer, each well was incubated with mouse anti-tilapia IgM mAb (1:5,000) at 37°C for 1 h. After washing, each well was incubated with HRP-conjugated goat anti-mouse IgG (1:5,500) for an additional hour. Color development was carried out as described above.

[4] = test system: TiLV; experiment: In vivo protection study of scFv1 against TiLV infection in tilapia; design: species or system Nile tilapia (Oreochromis niloticus); settings: scFv1 10 μg/g i.p. 12 h after TiLV
Experimental: Healthy Nile tilapia (Oreochromis niloticus) with a body weight of approximately 3.2±0.6 g were selected. After being temporarily cultured in a circulating water aquaculture system, they were randomly divided into a neutralization experimental group, a virus control group, and a BSA control group, with 30 fish in each group. In the experimental group, 50 μL of TiLV virus suspension (8×10^3 copies/μL) was injected intraperitoneally. Twelve hours later, a solution of scFv1 diluted in PBS at a dose of 10 μg/g was injected intraperitoneally. In the BSA control group, after injecting the same dose of TiLV, BSA solution of the same concentration was used instead of the scFv1. In the virus control group, only virus was injected. Meanwhile, a blank control was set up. After the injection, the mortality of tilapia was observed and recorded continuously for 10 days, and the cumulative mortality rate was calculated.

[5] = test system: TiLV; experiment: Indirect ELISA, affinity of scFv for TiLV; type: binding, tilapia lake virus (TiLV)
Experimental: The scFv affinity assay was performed by indirect ELISA. The virus (4 × 10^3 copies/μL) was incubated overnight at 4°C after being coated in the wells. After blocking with 5% skim milk, 100 µL of scFv1 and scFv3 proteins at the same concentrations (0.01–100 μg/mL) were added and incubated. Meanwhile, BSA proteins with the same concentration gradient were used as controls. The primary and secondary antibodies were 6×His tag mouse mAb and HRP-conjugated goat anti-mouse IgG, respectively, following the previous protocol. The color development and readings were performed as described above. The scFvs obtained from both the prokaryotic and eukaryotic expression systems were verified for their affinity to TiLV. Meanwhile, the BSA protein was used as a negative control.

[6] = test system: TiLV; experiment: Cellular fluorescence analysis of binding between scFv1 and TiLV in CIK cells; type: cell-based; settings: GST-scFv1 incubated 24 h with TiLV-infected CIK cells
Experimental: After being cultured for 48 h, CIK cells grew into a monolayer and were then continuously incubated with TiLV virus at 28°C for 72 h. Subsequently, the culture medium was replaced, and the cells were incubated with GST-scFv1 protein for 24 h to ensure binding to TiLV particles. The cells were fixed with 4% paraformaldehyde at room temperature for 10 min and then incubated with immunostaining permeabilization buffer with Triton X-100 for 10 min. Subsequently, the GST mouse mAb (1:500, Beyotime) was used as the primary antibody and incubated with CIK cells at 4°C overnight, and FITC-labeled goat anti-mouse IgG (1:500, Beyotime) was used as the secondary antibody. After DAPI staining, the cells were observed under a fluorescence microscope. Cells that were not incubated with GST-scFv1 protein served as the control.

Molecule | TiLV-positive antibody depletion rate [1] [%] | binding to GST-scFv1 by Western blot [2] | immunogenicity (serum antibody titer) after single immunization [3] | increase of the survival rate of TiLV-infected tilapia [4] [%] | EC50 of the scFv expressed in CHO cells that binds to TiLV ([5]; indirect ELISA, scFv from CHO expression system) [µg/mL] | EC50 for the binding of scFv to TiLV ([5]; indirect ELISA, scFv from prokaryotic expression, coated virus 4 × 10^3 copies/μL, scFv 0.01–100 μg/mL) [µg/mL] | EC50 of scFv1 fold lower than that of scFv3 ([5]; prokaryotic expression, binding to TiLV) [fold] | binding to TiLV on infected CIK cells (green fluorescence) [6]
GYQLASEIRGTIPLSS [S3WT] | ~70 | able to bind | highest immunogenicity |  |  |  |  | 
B1 |  |  |  | ~30 | 2.098 | 33.06 | 3.22 | had bound to TiLV
